Experiment: soluble fraction after stress (log2 fold change); higher = more stays soluble; pooled small domains, quantitative proteomics
Settings: stress: 75 degC
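Note: 20 min heating vs room temperature control held 20 min.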

| Sequence | soluble fraction (log2) |
| --- | --- |
| HMVLVEEYDTKDSASTFKIGYYARYNTKYGTPSKVGSYADNQRSGIWTFYTDSLKTYFKYNYSTGLIL | 0.0292 |
| HMVLVGERRQKILEVVSSGKAVTVEELSRILHVSPSTVRRDLRFLESRGLLYRTHGGAMPPV | -1.95 |
| HMVLVKFEWTPPDARILVDDHPVEARDKEMELPEGTHHVQALAPRGSGYESTVTDIEVRQGMDPVRIAL | -0.292 |
| HMVMRHTVEHDAELLAVLRLMYPASSSTKLRKMLTQGRVLVNDDVVHRAKHGVASGDTVDVIVRQRAE | -2.21 |
| HMVNFKLIGNKIAEARKKVNISQAQLAQRLFISSQAVGKWERGESMPDIITFNRLAEILGVDLNYFSE | -2.53 |
| HMVNPDAPAPLYIVNGKETDKNIALAIKPEDVQDVRIIKNTVALQVYGEKGKNGVVIINTKPGV | 0.132 |
| HMVNSADLAAKPFIDLLVSTRQQLREAKQYDLADTIRDELTNHGITIEDKPQGSEWQYEFNPNS | 0.0875 |
| HMVNTYILNNKEYPIEIIRKNNKNTYLRVKEGKIIVTTNYLTSSFTINKLIKDNTSFINKALLKEN | -0.71 |
| HMVNYKEILRLAHEGYSQRQIATNIGNSRNTVSEVLDAAKAANIAWPPEETVTNEQLGAILFPNRH | 0.349 |
| HMVNYKEILRLSAEGNSQRQIAAGSGNSRNTVIEVLEAARARGITWPLDEPVTNEQLEAILFPNRY | -0.072 |
| HMVPEETKQFINQLNHGSLSIRMNAANNLEKLGLLAIPEIEAALPKAHGEAAFRLPRLLHALVLRETEYF | 0.185 |
| HMVPEMIRDVISKSIRDMGVLPDHMQINERIALIQSLKKQQILGIKGAVAETARQLGISVPTVYRYMKKG | -0.946 |
| HMVPFISVTPTSLSFAKGGESKTVDIEASGAFSVGKVPTGFNLEVVNGRITITADANTGAARNGSVEFILA | 0.222 |
| HMVPHTTSMVAEVQERLFNLNYDPGPINGRMDQATITAITRFQRNFSLPQTGQIDEGFLNTLRDARL | -0.73 |
| HMVPLGDLSKNERRAMELAATNGNVTTRALADDAQVTKRTASTTLRRLAKRGLLEWIGKGPSDPGQFYRIP | -0.351 |
| HMVPLTPGELVGTEVRVLWWKEGRGEVIASSRGHQLTLEAHSEDPLRAGSTAVVLEAADDVLVVTS | -0.734 |
| HMVPPELEFLQSLMKIEDISELTAAIENNRDAVTDDFKEMLETVIENISGAPDTDPKLLERLKTIRTVLA | -0.0936 |
| HMVPPVVRTIYGAGGKMTATFLFPGGYEVDAASGAELPGKYRVESISLDQVVLTDKDGNRVPVGFSSVAPT | 0.149 |
| HMVPQEVLPITLIIDGKLIEENLLYAKMTEQVLIQQLDINNIKSIKQILFAGLDSFGNFFYQEKQN | -2.5 |
| HMVPTATVGENTSTLPVRQLPGGPVLVVLVRGDIVLPLPGHAFQNGDVWREISTVNGVIGWVPDEFLDY | -2.25 |
| HMVPTVSVDRDDTLRFEGRPVDWDVLKRELGAVAGIDELKIYADAKVSALTVSKIMKSASEAGVLQFILVT | -0.0735 |
| HMVQARDQNIEEGRQLVLRELDRLDLVNESLTDVAADMNMKSVEDMYAAIGAGDLRVGQVVHAVLKRAD | 0.0164 |
| HMVQDSEWWRNYQSAHDYFIQNGHLNVLRSDKKNTKLYNWIVGQRSSRWNSQGRINLLNSIGFIWDT | -3.01 |
| HMVQISNTDDLYPIVQRIVDANPQSVEDYKNGKAKALGFLVGQMMKETKGKANPSMVNDLIIKAIEE | -0.022 |
| HMVQIVINKEVQTTSQTILRENAGTSSRNIGYVDPNVKLRATLDRNSFYFIPEKKGWIMKSRVKLIEDLS | -3.77 |
| HMVQMNMLELQEEMQRDRSWIIKHLFQDEYFRRKIAKFSQFPINDSGKYLFHRKSMLKFLNDYAEEIVER | -2.88 |

| Sequence | soluble fraction (log2) |
| --- | --- |
| HMVQPSAAVRAHPVGAFVEQRQGLSDDQILALQKKWNEGIYARIQGTRWFLFSKDTPAVTSLLLVPDLP | -0.47 |
| HMVQVHEWTNKAGRTIKAKFVRGDAQSVTIFLGGRNFVLKIADLSEESQALARKLSAPPPPP | -2.52 |
| HMVQVPSLVGISEIEAKTLLTQAGFFVKIVEVFDANQPVGIVLAQAPSAGESRIIGSPVTITVNKAQ | -2.41 |
| HMVQVRQPAGAGDLFAKGRLHLSTGTIHTVKPLEVDLPKGRLTVVTGVSGSGKTTLILESLLPALAAAAA | 0.377 |
| HMVRSLESESVYDRQRAYEIAYQLRTEERPYSFIATQLNKAGLRPQKAARYEWYSVQELLRSA | -1.38 |
| HMVSDISTQYQKIINEALDKQPEVKLADIVTMIKEQTSNKVQNGIVENVAKQMNGIEIIKIGQAKGVRRTT | 0.0482 |
| HMVSDTGAIEAIVAQVLADNPKLVEGYLATPEDKRGKAIGPFIGLTRKAAAGVNPQVVMDVLKKKLSEL | -0.27 |
| HMVSEASELTDTINKIGSLAQALVGANKLSKTDLVGIIKKYHTSANYNSITDIGVAKNILAELEAKN | 0.13 |
| HMVSFSIDEALVSAVKGPRSANVMSIQRQFLVRLSVERDGRVTITGANSKSVQQAREAVEAAVEEAKLHP | -2.96 |
| HMVSGVMAQQAIAVLVQQEDKHAPLSDQALAERLQVQGIDISRRTVAKYRQLLQIPSAATRR | -0.669 |
| HMVSIGSQVAKRRRELRLTQQNLAEKMGVSFQAISSWEREEFLPDINKLQKLAAILNTKISYLLEE | -1.33 |
| HMVSINETAFIQIKNSSATEIKEKITALKLDELKNVTITADIRTNKLIVVGPKATINKIQELVIELDTES | -0.174 |
| HMVSKTEAMAVFIADKLQEGMVPANEILELYKGMQLSDRTIRNAKKQLGIVSIRKDGQWYWSL | -1.05 |
| HMVSLPSPLAGKVVSLTVQAGQEVKEGDEIMVLEAMKMNTQVHAPSSGRILALRVQPGDQVEEGQTLVTMG | 0.14 |
| HMVSLSNQVFEKIEYDILSGKYKIGEIISEKRLSSELGVSRTPIREALGRLSEEGLVGDSPSGTVVLGI | -0.368 |
| HMVSRVTTPGVVGKTWQETKQILKQADLTVGSLTRDGKDVTPADGDLVTAQNPSAGQAIVRGSSVDLTFDK | 0.0104 |
| HMVSSYTMAIQINGKLRATHDFSVDTSQEDIKKIIINLPAIQKYINGVEIKKFIIVPQKIVNIV | -2.73 |
| HMVSTEDEISDKLLLDFALEKLSENEKQIVKLRYYNSLTQSKTAEILNMTQVQVSRSEKKILAKLRGII | -0.0838 |
| HMVSTGIMVVDGRGSVLQHNEAALRQLGVEVLTFESQVKEKLASEDFSVRETTAMLNGKKVRIIAFSDIR | -2.44 |
| HMVSVEELLSSLDPNEATVLKLLAERSSGVDELMERSGLDFSALSEAITNLELFGYIAREMDGVYSFS | -1.05 |
| HMVSVPDIGEKLPDFTGTPKRLLTPLLNKNDVNIIIKGDGWVVSQKPPAGTPVTKGMTIEFTL | -0.525 |
| HMVTDSGEIEKLVDEVIDNNPDQVQQFREGKQQVLSYLVGQAMKLSRGKANPNQVNQFLRDKL | 0.433 |
| HMVTDTGEIEAIIDRVISENPDSVSDFKNGKERALKFLMGQAMKESKGKANPQIVNELLLKKL | -0.00511 |
| HMVTDVDELEKLIQKVLDSNSSQVDEYRQGKEKVFGFFVGAVMKLTKGQADPDVVNQLLKEKLSGRK | -0.177 |
| HMVTDVDYSTFLSQVEEGKVESVTIEDGEILFKGKDENGEARWYITGEMNDPNLVERLKDKVPSFNAPA | 0.194 |
| HMVTIYQRIMLVLEDKQVSVNALSKLVDMSQTTLNTQLKGERTLSANVVAKVLVAYPDVSAEWLMRGVGTM | -0.96 |

| Sequence | soluble fraction (log2) |
| --- | --- |
| HMVTLYDGFLSELRKRIPRGAELTNTLVDMLYIEREAVYRRLRGEVPFTFIEVMTVSKELGISLDNLAQA | -1.38 |
| HMVTTADIILEFYSRNPNATLTQAAQHVARATGTTYSRQAISAQLKRLEVAGLVERNGHVTV | -0.226 |
| HMVTTLLIINVAGKVKNPGVYQLPPGSRVVDALEAAGQQLKGVDISDINLARVLVDGEQILIGSN | -2.5 |
| HMVTVQEGETLSAIAARSGVSVKDLVRANEIRNPDSIQEGQVLFVP | 0.115 |
| HMVVADFQNYTVKPKENLYSLTKTSGLSQEELVALNPELKNGVQEGMVIKLPAAVKLMAQPE | 0.201 |
| HMVVLPGEVLRINVIQEGKEHGQGVGYMDDGTMVVIENGREFIGEYMEVNVTKVLQTAAGRMIFGRVD | -2.31 |
| HMVVLPPTEDAPEWAQVFDRLGRPESADGYKLPVPEGADPAFAKLASAKMHELGLSAKQGAALAAWWNEQA | 0.0475 |
| HMVVMEIGANGSEVVKLQKRLNQLGYYTEHASGVYDVKTASAVNEFQRQNELNATGKADYTTLDMIYNQ | -0.00159 |
| HMVVRRLPFGFSKRFGVLVVPGTSNPVELLYREDASMQSLLEARRVVAQPVAFKKTDVESFNAQLARAHEN | -1.66 |
| HMVVSDSAEIDKIVQDVIAANPKAIEDFKSGKTNVTGWLMGQVMKLSHGKANPKQATEILNKYLSK | 0.513 |
| HMVVTRVKAIDVVNIRKSDSETADKLGKAAVGDEFDLLEKKGNGWSKISYEGGEAYIKSEFLEPSE | 0.602 |
| HMVVVMEKNASSAEIEQVQERLRQAGFKIHLSQGVERTIIGAIGDRSQVDLGFLEALPGVEKVVPIMK | 0.171 |
| HMVVYFGGPVMLERGIVLHTPDISTKGTINVSDDFALTAHKEILDNINKDTSSLQFKLAIGH | -0.616 |
| HMVWINIRDLSDLFSKSGKSENSKNILDLQTLKIEKLLGGGQINTPYTIKVKQATPSAIEKVKQAGGEVIL | -0.104 |
| HMVWPETEAIVTEDFIGKKRSEVQQEGVIFEFFGEGDMVIDQLPRGGVTLNESGRVWIYLGEDTF | -0.78 |
| HMVYFAKNIRHLRRLRGMSQELLAAELDITRARLGAYEESRSEPPLHLLIKISEFFKLPVDIIVKNDLTKS | -4.88 |
| HMVYFDDEELDRFAGRAADSYTSDETDEFRDVMLTLLPADVMPWTQSIEMRGILLPEQLRDELLML | -0.391 |
| HMVYVPTKAEVSQQFQDASKARFDERYAIVELADGRRTMAPLAFLTKADHAWLKQLASTSPLPKGK | -0.16 |
| HMWAQSVSLHGLLGRQALLIVDGKPPRAVAPGQTHLGVTVLSTDEDRAVVALAGGQRLTLRVGESPVSVG | -1.51 |
| HMWMEKEELLWNDIIRGGVERGELREDTDIQEAAALFRQVFIGLAYQMSFSDGLDVGILRKRFHHIYGLLT | -0.173 |
| HMWNKGETKIPTQAQNELIKRRQAGATWTSLSEWLKATYGIDIHRTNIQRWYDKEVYLDQEN | -0.531 |
| HMWNPVLVVRGDFPKDLATTLLKMIFAQKEALNPHILFQNLLRTDNITFRESYPYHSASKTMFRF | -0.276 |
| HMWPQIAGFADRFGLSDTERRIVTLMSHGRSRKIIASTLGYSQNTIRNYTRNIYAKAGVHSKQELLDLLDP | -1.96 |
| HMWPTPRTWSALMNELNLYKENHGYANIVDIPSEKIRRMADGIIGEDMAVRYVAFLQSHASS | -1.7 |
| HMWQKGEPAITGLKRISKPGLRIYSKNDELPIVYGNRGIAVISTNKGVMTGIEAKRSGVGGEVLFYV | -0.112 |

Reference: the domain aggregation screens of Martell et al. (2025)
